Our source for the IC50 and IC50 values for the inhibition of TGFb1-dependent suppression of CTLL-2 cell proliferation values is patent US20220127332A1 (CURA THERAPEUTICS, published 2022).

What is called IC50 is the point on the concentration scale where inhibition reaches its midpoint.

One assay has as its target active TGFβ3 (UniProt P10600). The experiment in a line: blocking of active TGFβ3 (1 ng/mL) in solution, 30 min in PBS; free TGFβ3 by ELISA. (An ELISA detects its analyte on a solid surface through an enzyme-linked reagent.)
Assay [1] addresses T1, active TGFβ1 (human, UniProt P01137 279-390).
T1 construct: mature; also called TGFb1; human active TGFβ1
The experiment in a line: blocking of active TGFβ1 (1 ng/mL) in solution, 30 min in PBS; free TGFβ1 by ELISA.

Assay [2] has as its target T1, active TGFβ1. The experiment in a line: cell-based or functional assay.

T1 sequence (P01137 279-390 limits assumed): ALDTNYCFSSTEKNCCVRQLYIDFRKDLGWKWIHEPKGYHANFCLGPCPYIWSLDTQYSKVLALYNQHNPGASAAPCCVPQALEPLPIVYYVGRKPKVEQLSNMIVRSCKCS
Chain of active TGFβ3 (P10600 301-412): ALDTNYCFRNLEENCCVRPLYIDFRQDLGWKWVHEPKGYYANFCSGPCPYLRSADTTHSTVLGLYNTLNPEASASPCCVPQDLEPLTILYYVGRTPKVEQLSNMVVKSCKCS

As for “FIST (monovalent FIST; fusion protein of an IL-2 polypeptide and a single sTBRII receptor polypeptide)”, the IC50 with active TGFβ3 came out at 3.6 nM; with active TGFβ1 [1] it was 1.29 nM. For the same molecule, in the assay with active TGFβ1 [2], the IC50 values for the inhibition of TGFb1-dependent suppression of CTLL-2 cell proliferation was 0.12.

B1: sTBRII isoform 2 (long) (receptor, UniProt P37173-2 23-191, looked up)
chain: TIPPHVQKSDVEMEAQKDEIICPSCNRTAHPLRHINNDMIVTDNNGAVKFPQLCKFCDVRFSTCDNQKSCMSNCSITSICEKPQEVCVAVWRKNDENITLETVCHDPKLPYHDFILEDAASPKCIMKEKKKPGETFFMCSCSSDECNDNIIFSEEYNTSNPDLLLVIFQ
notes: also called TbRII (isoform II); TβRII isoform 2
On to B1, for which the 50% inhibitory concentration (IC50) in the assay with active TGFβ1 [1] was 0.02 nM.
